# Measured values taken from IntAct's records for PubMed 18854158.
# B1: Double-strand break repair protein rad32 (Schizosaccharomyces pombe (strain ATCC 38366 / 972)), Q09683 (parent)
# chain: MPNDPSDMNNELHNENTIRILISSDPHVGYGEKDPVRGNDSFVSFNEILEIARERDVDMILLGGDIFHDNKPSRKALYQALRSLRLNCLGDKPCELELLSDTSLTTGDTAVCNINYLDPNINVAIPVFSIHGNHDDPSGDGRYSALDILQVTGLVNYFGRVPENDNIVVSPILLQKGFTKLALYGISNVRDERLYHSFRENKVKFLRPDLYRDEWFNLLTVHQNHSAHTPTSYLPESFIQDFYDFVLWGHEHECLIDGSYNPTQKFTVVQPGSTIATSLSPGETAPKHCGILNITGKDFHLEKIRLRTVRPFIMKDIILSEVSSIPPMVENKKEVLTYLISKVEEAITEANAQWYEAQGTVPVVENEKPPLPLIRLRVDYTGGYQTENPQRFSNRFVGRVANATDVVQFYLKKKYTRSKRNDGLYTSAVEDIKINSLRVESLVNEYLKTNRLECLPEDSLGEAVVNFVEKDDRDAIKECVETQLNKQINLLVKKRVTEENLEQEISSIINDLPKISTTKRKDYEELPEEVSETSINIAEHTPVLKHTSSLLDHHSPLATSSSEHEMEATPSPALLKKTNKRRELPSSLTKKNTRTPQRSKEVKKVPARKLSQSTKKSDKNTQSTLLFYDPSSTTEAQYLDNEDDEILDD
# partner: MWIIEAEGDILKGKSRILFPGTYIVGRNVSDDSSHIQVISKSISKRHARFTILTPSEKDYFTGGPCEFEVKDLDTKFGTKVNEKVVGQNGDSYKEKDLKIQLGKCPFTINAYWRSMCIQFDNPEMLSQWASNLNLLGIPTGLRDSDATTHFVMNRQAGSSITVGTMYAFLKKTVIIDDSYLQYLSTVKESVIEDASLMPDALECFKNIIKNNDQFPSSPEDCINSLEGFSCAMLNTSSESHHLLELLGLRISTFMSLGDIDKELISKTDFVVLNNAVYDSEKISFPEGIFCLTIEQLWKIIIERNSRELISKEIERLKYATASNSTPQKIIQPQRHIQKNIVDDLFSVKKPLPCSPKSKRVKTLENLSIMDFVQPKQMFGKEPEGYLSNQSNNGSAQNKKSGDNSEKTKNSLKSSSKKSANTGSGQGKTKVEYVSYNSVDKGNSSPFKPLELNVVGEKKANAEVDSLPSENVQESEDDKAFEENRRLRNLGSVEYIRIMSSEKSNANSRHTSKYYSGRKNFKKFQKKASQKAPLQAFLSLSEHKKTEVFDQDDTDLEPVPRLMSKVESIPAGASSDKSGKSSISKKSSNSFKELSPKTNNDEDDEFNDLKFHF
# B2: Double-strand break repair protein rad32 (Schizosaccharomyces pombe (strain ATCC 38366 / 972)), Q09683 (parent)
# chain: B1 chain
# partner: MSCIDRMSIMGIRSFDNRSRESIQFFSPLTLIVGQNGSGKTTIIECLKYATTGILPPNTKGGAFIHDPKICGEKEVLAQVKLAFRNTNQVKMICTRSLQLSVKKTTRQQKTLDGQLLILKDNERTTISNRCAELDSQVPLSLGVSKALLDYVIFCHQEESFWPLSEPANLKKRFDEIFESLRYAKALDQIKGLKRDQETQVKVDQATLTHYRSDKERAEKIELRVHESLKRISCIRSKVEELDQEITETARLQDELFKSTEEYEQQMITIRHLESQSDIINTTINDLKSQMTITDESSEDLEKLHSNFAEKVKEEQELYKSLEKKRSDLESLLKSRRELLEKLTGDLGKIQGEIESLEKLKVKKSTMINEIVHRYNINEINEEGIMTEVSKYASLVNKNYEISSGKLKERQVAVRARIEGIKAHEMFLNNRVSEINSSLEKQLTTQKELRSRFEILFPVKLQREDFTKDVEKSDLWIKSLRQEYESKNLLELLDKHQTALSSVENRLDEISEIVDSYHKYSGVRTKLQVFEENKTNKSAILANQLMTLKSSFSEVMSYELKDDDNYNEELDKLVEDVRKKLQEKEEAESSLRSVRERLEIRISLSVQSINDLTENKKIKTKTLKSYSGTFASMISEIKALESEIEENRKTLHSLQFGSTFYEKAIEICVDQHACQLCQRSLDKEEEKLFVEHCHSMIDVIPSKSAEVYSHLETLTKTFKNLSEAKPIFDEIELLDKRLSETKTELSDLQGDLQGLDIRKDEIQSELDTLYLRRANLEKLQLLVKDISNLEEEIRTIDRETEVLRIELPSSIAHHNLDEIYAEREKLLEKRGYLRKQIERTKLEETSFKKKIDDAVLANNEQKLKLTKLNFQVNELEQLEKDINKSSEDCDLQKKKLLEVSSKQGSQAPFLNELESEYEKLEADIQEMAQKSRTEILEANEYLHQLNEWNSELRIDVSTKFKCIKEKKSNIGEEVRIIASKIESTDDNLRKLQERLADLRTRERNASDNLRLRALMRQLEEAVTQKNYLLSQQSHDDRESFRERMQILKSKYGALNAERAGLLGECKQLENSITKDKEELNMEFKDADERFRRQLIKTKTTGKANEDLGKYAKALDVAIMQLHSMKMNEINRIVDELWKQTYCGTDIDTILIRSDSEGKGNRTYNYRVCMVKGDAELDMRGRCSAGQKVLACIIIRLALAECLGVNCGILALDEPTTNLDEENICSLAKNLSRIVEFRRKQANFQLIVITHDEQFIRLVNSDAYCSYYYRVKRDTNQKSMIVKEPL
# Variants of: B1
# Settings: with nbs1_schpo nbs1, O43070
row,Variant,effect of a mutation on the interaction
1,L77K;L154D,decreasing interaction

# Variants of: B2
# Settings: with rad50_schpo rad50, Q9UTJ8
row,Variant,effect of a mutation on the interaction
1,L77K;L154D,decreasing interaction
